In publication PMC5464768, “ER retention is imposed by COPII protein sorting and attenuated by 4-phenylbutyrate” (eLife, 2017) one finds Kd data, which are given here for one molecule.

This assay addresses T1, 5-Fam-[…] (vesicular stomatitis virus).
T1 construct: also called fluorescent tracer peptide; fluorescent probe
Kind of assay: fluorescence polarisation. The note with it: both partners purified. On the technique in general: In fluorescence polarisation assays a small probe gives low polarisation when free and higher when bound to something large.

B1: Sec24a (△1–340) (domain or fragment)
chain: LSLQPEGLRVVNLLQERNMLPSTPLKPPVPNLHEDIQKLNCNPELFRCTLTSIPQTQALLNKAKLPLGLLLHPFKDLVQLPVVTSSTIVRCRSCRTYINPFVSFLDQRRWKCNLCYRVNDVPEEFLYNPLTRVYGEPHRRPEVQNATIEFMAPSEYMLRPPQPPVYLFVFDVSHNAVETGYLNSVCQSLLDNLDLLPGNTRTKIGFITFDSTIHFYGLQESLSQPQMLIVSDIEDVFIPMPENLLVNLNESKELVQDLLKTLPQMFTKTLETQSALGPALQAAFKLMSPTGGRMSVFQTQLPTLGVGALKPREEPNHRSSAKDIHMTPSTDFYKKLALDCSGQQVAVDLFLLSGQYSDLASLGCISRYSAGSVYYYPSYHHQHNPVQVQKLQKELQRYLTRKIGFEAVMRIRCTKGLSIHTFHGNFFVRSTDLLSLPNVNPDAGYAVQMSVEESLTDTQLVSFQSALLYTSSKGERRIRVHTLCLPVVSTLNDVFLGADVQAISGLLANMAVDRSMTASLSDARDALVNAVIDSLSAYRSSVLSNQQPGLMVPFSLRLFPLFVLALLKQKSFQTGTNARLDERIFAMCQVKNQPLVYLMLTTHPSLYRVDNLSDEGALNISDRTIPQPPILQLSVEKLSRDGAFLMDAGSVLMLWVGKNCTQNFLSQVLGVQNYASIPQPMTDLPELDTPESARIIAFISWLREQRPFFPILYVIRDESPMKANFLQNMIEDRTESALSYYEFLLHIQQQVNK
notes: Sec24a, H. sapiens, lacking residues 1–340 (△1–340); Purified alone for fluorescence polarization and as the complex with Sec23a for crystallography; also called human Sec24a; source: High Five insect cells (baculovirus), purified (HisTrap HP, HiTrap Q, Superdex 200); not shown: His6, N-terminal, cleaved
Broadly, the Kd is the equilibrium constant for the complex coming apart. Read a low Kd as a tighter complex. For B1, binding was characterised by a dissociation constant (Kd) of 14.2 µM. In other words, the double-digit micromolar range.
